From FireProtDB (doi:10.1093/protein/12.10.841) come the findings set out here.

First the molecules themselves.
B1: Lysozyme C, P61626 (parent)
chain: MKALIVLGLVLLSVTVQGKVFERCELARTLKRLGMDGYRGISLANWMCLAKWESGYNTRATNYNAGDRSTDYGIFQINSRYWCNDGKTPGAVNACHLSCSALLQDNIADAVACAKRVVRDPQGIRAWVAWRNRCQNRDVRQYVQGCGV

“And” between values parts separate entries of the source, which are not always exact repeats. Equal values may be shown once.

One series covers variants of B1. The note with it: Homo sapiens; pH 2.7; 64.9 °C; Thermal; DSC; glycine 0.05 M; reversible: yes; structure 1LZ1; whole UniProt chain shown.
Regarding MKALIVLGLVLLSVTVQGKVFERCELARTLKRLGMDGYRGISLANWMCLAKWESGYNTRATNYNAGDRSTDYGIFQYNSRYWCNDGKTPGAVNACHLSCSALLQDNIADAVACAKRVVRDPQGIRAWVAWRNRCQNRDVRQYVQGCGV, the “ddG of mutation (higher = less stable)” value was found to be 3.78 kcal/mol.

For the variant MKALIVLGLVLLSVTVQGKVFERCELARTLKRLGMDGYRGISLANWMCLAKWESGYNTRATNYNAGDRSTDYGIFQGNSRYWCNDGKTPGAVNACHLSCSALLQDNIADAVACAKRVVRDPQGIRAWVAWRNRCQNRDVRQYVQGCGV, the “ddG of mutation (higher = less stable)” value was found to be 3.82 kcal/mol.

For MKALIVLGLVLLSVTVQGKVFERCELARTLKRLGMDGYRGISLANWMCLAKWESGYNTRATNYNAGDRSTDYGIFQANSRYWCNDGKTPGAVNACHLSCSALLQDNIADAVACAKRVVRDPQGIRAWVAWRNRCQNRDVRQYVQGCGV, the “ddG of mutation (higher = less stable)” value was found to be 1.72 kcal/mol.

Regarding MKALIVLGLVLLSVTVQGKVFERCELARTLKRLGMDGYRGISLANWMCLAKWESGYNTRATNYNAGDRSTDYGIFQVNSRYWCNDGKTPGAVNACHLSCSALLQDNIADAVACAKRVVRDPQGIRAWVAWRNRCQNRDVRQYVQGCGV, the “ddG of mutation (higher = less stable)” value turned out to be 1.1 kcal/mol.

As for MKALIVLGLVLLSVTVQGKVFERCELARTLKRLGMDGYRGISLANWMCLAKWESGYNTRATNYNAGDRSTDYGFFQINSRYWCNDGKTPGAVNACHLSCSALLQDNIADAVACAKRVVRDPQGIRAWVAWRNRCQNRDVRQYVQGCGV, the “ddG of mutation (higher = less stable)” value worked out at 4.09 kcal/mol.

As to MKALIVLGLVLLSVTVQGKVFERCELARTLKRLGMDGYRGISLANWMCLAKWESGYNTRATNYNAGDRSTDYGVFQINSRYWCNDGKTPGAVNACHLSCSALLQDNIADAVACAKRVVRDPQGIRAWVAWRNRCQNRDVRQYVQGCGV, the “ddG of mutation (higher = less stable)” value was 1.2 kcal/mol.

As to MKALIVLGLVLLSVTVQGKVFERCELARTLKRLGMDGYRGISLANWMCLAKWESGYNTRATNYNAGDRSTDYGTFQINSRYWCNDGKTPGAVNACHLSCSALLQDNIADAVACAKRVVRDPQGIRAWVAWRNRCQNRDVRQYVQGCGV, the “ddG of mutation (higher = less stable)” value amounted to 3.63 kcal/mol.

The same series, now with this note: Homo sapiens; pH 2.7; Thermal; DSC; glycine 0.05 M; reversible: yes; structure 1LZ1; whole UniProt chain shown.
On to MKALIVLGLVLLSVTVQGKVFERCELARTLKRLGMDGYRGISLANWMCLAKWESGYNTRATNYNAGDRSTDYGIFQYNSRYWCNDGKTPGAVNACHLSCSALLQDNIADAVACAKRVVRDPQGIRAWVAWRNRCQNRDVRQYVQGCGV, for which the “change of melting temperature, mutant - wild type (higher = more stable)” value (from here on “change of melting temperature, mutant”) is -13.8 °C; the “heat capacity change of unfolding” value came to 1.34 kcal/mol/K; the “unfolding enthalpy (calorimetric)” value was determined as 97.8 kcal/mol; the “unfolding enthalpy (van 't Hoff)” value was found to be 105 kcal/mol.

As for MKALIVLGLVLLSVTVQGKVFERCELARTLKRLGMDGYRGISLANWMCLAKWESGYNTRATNYNAGDRSTDYGIFQGNSRYWCNDGKTPGAVNACHLSCSALLQDNIADAVACAKRVVRDPQGIRAWVAWRNRCQNRDVRQYVQGCGV, the Tm (in general, the temperature at which the thermal transition is half complete) was 52.2 °C; the “change of melting temperature, mutant” value is -12.7 °C; the “heat capacity change of unfolding” value is 1.24 kcal/mol/K; the “unfolding enthalpy (calorimetric)” value was found to be 106 kcal/mol. The “unfolding enthalpy (van 't Hoff)” value was found to be 109 kcal/mol.

For MKALIVLGLVLLSVTVQGKVFERCELARTLKRLGMDGYRGISLANWMCLAKWESGYNTRATNYNAGDRSTDYGIFQMNSRYWCNDGKTPGAVNACHLSCSALLQDNIADAVACAKRVVRDPQGIRAWVAWRNRCQNRDVRQYVQGCGV, the Tm was 60.7 °C and 64.9 °C; the “change of melting temperature, mutant” value is -4.2 °C; the “heat capacity change of unfolding” value is 1.27 kcal/mol/K; the “unfolding enthalpy (calorimetric)” value came to 106 kcal/mol. Also, the “unfolding enthalpy (van 't Hoff)” value turned out to be 115 kcal/mol.

Take MKALIVLGLVLLSVTVQGKVFERCELARTLKRLGMDGYRGISLANWMCLAKWESGYNTRATNYNAGDRSTDYGIFQANSRYWCNDGKTPGAVNACHLSCSALLQDNIADAVACAKRVVRDPQGIRAWVAWRNRCQNRDVRQYVQGCGV: the Tm came out at 59.7 °C; the “change of melting temperature, mutant” value was -5.2 °C; the “heat capacity change of unfolding” value is 1.46 kcal/mol/K; the “unfolding enthalpy (calorimetric)” value was found to be 115 kcal/mol. Further, the “unfolding enthalpy (van 't Hoff)” value stood at 121 kcal/mol.

On to MKALIVLGLVLLSVTVQGKVFERCELARTLKRLGMDGYRGISLANWMCLAKWESGYNTRATNYNAGDRSTDYGIFQVNSRYWCNDGKTPGAVNACHLSCSALLQDNIADAVACAKRVVRDPQGIRAWVAWRNRCQNRDVRQYVQGCGV, for which the Tm was 61.5 °C and 64.9 °C; the “change of melting temperature, mutant” value is -3.4 °C; the “heat capacity change of unfolding” value came out at 1.2 kcal/mol/K; the “unfolding enthalpy (calorimetric)” value was determined as 110 kcal/mol. In addition, the “unfolding enthalpy (van 't Hoff)” value came to 117 kcal/mol.

In the case of MKALIVLGLVLLSVTVQGKVFERCELARTLKRLGMDGYRGISLANWMCLAKWESGYNTRATNYNAGDRSTDYGFFQINSRYWCNDGKTPGAVNACHLSCSALLQDNIADAVACAKRVVRDPQGIRAWVAWRNRCQNRDVRQYVQGCGV, the “change of melting temperature, mutant” value is -15 °C; the “heat capacity change of unfolding” value amounted to 1.82 kcal/mol/K; the “unfolding enthalpy (calorimetric)” value was found to be 102 kcal/mol; the “unfolding enthalpy (van 't Hoff)” value amounted to 106 kcal/mol.

On to MKALIVLGLVLLSVTVQGKVFERCELARTLKRLGMDGYRGISLANWMCLAKWESGYNTRATNYNAGDRSTDYGVFQINSRYWCNDGKTPGAVNACHLSCSALLQDNIADAVACAKRVVRDPQGIRAWVAWRNRCQNRDVRQYVQGCGV, for which the Tm is 61.3 °C and 64.9 °C; the “change of melting temperature, mutant” value was -3.6 °C; the “heat capacity change of unfolding” value was 1.34 kcal/mol/K; the “unfolding enthalpy (calorimetric)” value turned out to be 114 kcal/mol. Further, the “unfolding enthalpy (van 't Hoff)” value amounted to 117 kcal/mol.

As to MKALIVLGLVLLSVTVQGKVFERCELARTLKRLGMDGYRGISLANWMCLAKWESGYNTRATNYNAGDRSTDYGTFQINSRYWCNDGKTPGAVNACHLSCSALLQDNIADAVACAKRVVRDPQGIRAWVAWRNRCQNRDVRQYVQGCGV, the “change of melting temperature, mutant” value is -12.5 °C; the “heat capacity change of unfolding” value was determined as 1.08 kcal/mol/K; the “unfolding enthalpy (calorimetric)” value was determined as 102 kcal/mol; the “unfolding enthalpy (van 't Hoff)” value was 108 kcal/mol.

Turning to MKALIVLGLVLLSVTVQGKVFERCELARTLKRLGMDGYRGISLANWMCLAKWESGYNTRATNYNAGDRSTDYGAFQINSRYWCNDGKTPGAVNACHLSCSALLQDNIADAVACAKRVVRDPQGIRAWVAWRNRCQNRDVRQYVQGCGV, the Tm came out at 64.9 °C.

Consider MKALIVLGLVLLSVTVQGKVFERCELARTLKRLGMDGYRGISLANWMCLAKWESGYNTRATNYNAGDRSTDYGGFQINSRYWCNDGKTPGAVNACHLSCSALLQDNIADAVACAKRVVRDPQGIRAWVAWRNRCQNRDVRQYVQGCGV, for which the Tm was 62.2 °C and the “change of melting temperature, mutant” value was -2.7 °C.

The series is the same for the next values; noted with them: Homo sapiens; pH 2.71; Thermal; DSC; glycine 0.05 M; reversible: yes; structure 1LZ1; whole UniProt chain shown.
Turning to MKALIVLGLVLLSVTVQGKVFERCELARTLKRLGMDGYRGISLANWMCLAKWESGYNTRATNYNAGDRSTDYGIFQYNSRYWCNDGKTPGAVNACHLSCSALLQDNIADAVACAKRVVRDPQGIRAWVAWRNRCQNRDVRQYVQGCGV, the Tm turned out to be 51.4 °C, the “heat capacity change of unfolding” value came out at 1.55 kcal/mol/K, the “unfolding enthalpy (calorimetric)” value amounted to 79.3 kcal/mol and the “unfolding enthalpy (van 't Hoff)” value came out at 84.4 kcal/mol.

The series is the same for the next values; noted with them: Homo sapiens; pH 3.18; Thermal; DSC; glycine 0.05 M; reversible: yes; structure 1LZ1; whole UniProt chain shown.
Turning to MKALIVLGLVLLSVTVQGKVFERCELARTLKRLGMDGYRGISLANWMCLAKWESGYNTRATNYNAGDRSTDYGIFQYNSRYWCNDGKTPGAVNACHLSCSALLQDNIADAVACAKRVVRDPQGIRAWVAWRNRCQNRDVRQYVQGCGV, the Tm was determined as 59.5 °C, the “heat capacity change of unfolding” value was 1.27 kcal/mol/K, the “unfolding enthalpy (calorimetric)” value is 90.6 kcal/mol and the “unfolding enthalpy (van 't Hoff)” value is 97 kcal/mol.

The same series, now with this note: Homo sapiens; pH 2.65; Thermal; DSC; glycine 0.05 M; reversible: yes; structure 1LZ1; whole UniProt chain shown.
Turning to MKALIVLGLVLLSVTVQGKVFERCELARTLKRLGMDGYRGISLANWMCLAKWESGYNTRATNYNAGDRSTDYGIFQMNSRYWCNDGKTPGAVNACHLSCSALLQDNIADAVACAKRVVRDPQGIRAWVAWRNRCQNRDVRQYVQGCGV, the melting temperature (Tm) came out at 59.9 °C, the “heat capacity change of unfolding” value was determined as 1 kcal/mol/K, the “unfolding enthalpy (calorimetric)” value came out at 98.5 kcal/mol and the “unfolding enthalpy (van 't Hoff)” value is 108 kcal/mol.

The series is the same for the next values; noted with them: Homo sapiens; pH 2.8; Thermal; DSC; glycine 0.05 M; reversible: yes; structure 1LZ1; whole UniProt chain shown.
On to MKALIVLGLVLLSVTVQGKVFERCELARTLKRLGMDGYRGISLANWMCLAKWESGYNTRATNYNAGDRSTDYGIFQMNSRYWCNDGKTPGAVNACHLSCSALLQDNIADAVACAKRVVRDPQGIRAWVAWRNRCQNRDVRQYVQGCGV, for which the midpoint of thermal melting (Tm) stood at 62 °C, the “heat capacity change of unfolding” value came out at 1.2 kcal/mol/K, the “unfolding enthalpy (calorimetric)” value worked out at 103 kcal/mol and the “unfolding enthalpy (van 't Hoff)” value turned out to be 110 kcal/mol.

The same series, now with this note: Homo sapiens; pH 2.95; Thermal; DSC; glycine 0.05 M; reversible: yes; structure 1LZ1; whole UniProt chain shown.
Take MKALIVLGLVLLSVTVQGKVFERCELARTLKRLGMDGYRGISLANWMCLAKWESGYNTRATNYNAGDRSTDYGIFQMNSRYWCNDGKTPGAVNACHLSCSALLQDNIADAVACAKRVVRDPQGIRAWVAWRNRCQNRDVRQYVQGCGV: the Tm is 64.8 °C, the “heat capacity change of unfolding” value was determined as 1.1 kcal/mol/K, the “unfolding enthalpy (calorimetric)” value was 106 kcal/mol and the “unfolding enthalpy (van 't Hoff)” value worked out at 114 kcal/mol.

Staying with this series, now noted: Homo sapiens; pH 3.13; Thermal; DSC; glycine 0.05 M; reversible: yes; structure 1LZ1; whole UniProt chain shown.
On to MKALIVLGLVLLSVTVQGKVFERCELARTLKRLGMDGYRGISLANWMCLAKWESGYNTRATNYNAGDRSTDYGIFQMNSRYWCNDGKTPGAVNACHLSCSALLQDNIADAVACAKRVVRDPQGIRAWVAWRNRCQNRDVRQYVQGCGV, for which the Tm worked out at 66.5 °C, the “heat capacity change of unfolding” value stood at 1.15 kcal/mol/K, the “unfolding enthalpy (calorimetric)” value worked out at 107 kcal/mol and the “unfolding enthalpy (van 't Hoff)” value was found to be 117 kcal/mol.

The same series, now with this note: Homo sapiens; pH 2.75; Thermal; DSC; glycine 0.05 M; reversible: yes; structure 1LZ1; whole UniProt chain shown.
For the variant MKALIVLGLVLLSVTVQGKVFERCELARTLKRLGMDGYRGISLANWMCLAKWESGYNTRATNYNAGDRSTDYGFFQINSRYWCNDGKTPGAVNACHLSCSALLQDNIADAVACAKRVVRDPQGIRAWVAWRNRCQNRDVRQYVQGCGV, the melting temperature (Tm) was found to be 50.8 °C, the “heat capacity change of unfolding” value is 1.89 kcal/mol/K, the “unfolding enthalpy (calorimetric)” value was found to be 76 kcal/mol and the “unfolding enthalpy (van 't Hoff)” value is 79.3 kcal/mol.

The series is the same for the next values; noted with them: Homo sapiens; pH 3.06; Thermal; DSC; glycine 0.05 M; reversible: yes; structure 1LZ1; whole UniProt chain shown.
Regarding MKALIVLGLVLLSVTVQGKVFERCELARTLKRLGMDGYRGISLANWMCLAKWESGYNTRATNYNAGDRSTDYGFFQINSRYWCNDGKTPGAVNACHLSCSALLQDNIADAVACAKRVVRDPQGIRAWVAWRNRCQNRDVRQYVQGCGV, the Tm came to 56.3 °C, the “heat capacity change of unfolding” value was found to be 1.77 kcal/mol/K, the “unfolding enthalpy (calorimetric)” value is 86 kcal/mol and the “unfolding enthalpy (van 't Hoff)” value was found to be 89.6 kcal/mol.
